Target: T1, human transmembrane 4 L6 family member 5 (TM4SF5) on cells (human, UniProt O14894 1-197)
T1 construct: whole, on cells; also called endogenous TM4SF5; TM4SF5 protein
T1 sequence (looked up): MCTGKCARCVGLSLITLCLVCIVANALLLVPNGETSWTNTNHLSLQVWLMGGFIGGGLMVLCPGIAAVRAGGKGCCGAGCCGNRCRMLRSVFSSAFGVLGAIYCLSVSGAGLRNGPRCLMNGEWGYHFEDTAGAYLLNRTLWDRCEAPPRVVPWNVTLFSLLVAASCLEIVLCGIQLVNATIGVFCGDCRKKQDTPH
Test: flow cytometry, internalization analysis on SNU449Tp cells
Experimental: Cells were transferred to ice-cold buffer to stop the occurrence of internalization and stained with FITC-conjugated anti-human IgG. PI⁻ cells were analyzed by flow cytometry.

B1: humanized monoclonal antibody Ab27-hz9 (scFv-hFc form) (antibody, V domains shown)
VH: QVQLVQSGAEVKKPGASVKVSCKASGYTFTDYEMHWVRQAPGQGLEWMGAIDPETGGTAYNQKFKGRVTMTADKSISTAYMELSRLRSDDTAVYYCARPYLGYWGQGTLVTVSS
VL: EIVLTQSPGTLSLSPGERATLSCRSSQSLVHSNGNTYLHWYQQKPGQAPRLLIYKVSNRFSGIPDRFSGSGSGTDFTLTISRLEPEDFAVYYCFQGSHIPLTFGQGTKVEIK
notes: VH and VK genes were synthesized in scFv format and inserted into the pDR-OriP-Fc1 vector, so the molecule tested is an scFv-human Fc fusion; Frameworks are IGHV1-2 and IGKV3-20 with murine residues kept at H71 and H73; also called humanized Ab27
- binding result: binds
